In the nanobody polyreactivity screen of Harvey et al. (2022):

Assay: yeast display, Sf9 membrane polyspecificity reagent, FACS + sequencing; frameworks hold sequencing errors
How it was run: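 Galactose-induced (36–48 hours) yeast carrying a synthetic nanobody display library were exposed to 10% biotinylated, detergent-solubilized Sf9 membrane reagent at 4 °C for 1 hour. FACS followed streptavidin microbead enrichment, using low and high (top ~1%) gates for expression (anti-HA) and reagent binding (streptavidin). Colony PCR, MiSeq 2 × 250 sequencing and CDR-length filtering followed. Labels for polyreactivity reflect the gate of origin.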

| Sequence | polyreactivity (PSR sort gate) |
| --- | --- |
| QVQLVESGGGLVPAGGSLRLSCAASGRIFPQYAMGWYRQAPGKERELVAAISYRGGSTYYADSVKGRFTISRDNAKNTVYSQMNSLKPEDTAVYYCAAKRYNYWGQGTQVTVST | high polyreactivity |
| QVQLVESGGGLVPAGGSLRLSCAASGSIFGRNTMGWYRQAPGKERELVAAISSRGTSTYYADSVKGRFTISRDNAKNTVYLQMNSLKPEDTAVYYSAARVYPYNYWGQGTQVTVSS | high polyreactivity |
| QVQLVESGGGLVPAGGSLRLSCAASGSTFHYYTMGWYRQAPGKERELVAAISWRGTSTYYADSVKGRFTISRDNAKNTVYLQMNSLKAEDTGVYYCAVRSSPGAGYYYWGQGTQVTVSS | high polyreactivity |
| QVQLVESGGGLVPAGGTLRLSCAASGFNFYFNTMGWYRQATGKERELVAAISSGGSTYYADSVKGRFTISRDNAKNTVSFQMNSLKPEDTAVYYCNKDYLQYYPYDYWGHGTQVTVSS | low polyreactivity |
| QVQLVESGGGLVPARGSLRLSCAASGRTFGPYAMGWYRQAPGKERELVAAITDTGSGTYYADSVKGRFTISRDNSKNTVYLQMNSLKPVDTAVYYCNAVRKYWGQGTQVTVSS | low polyreactivity |
| QVQLVESGGGLVQAAGSLRLICAASGSTFPANAMGWYRQEPGKERELVASITKSGGDTYYADSVKGRFTISRDNAKNSVYVQMNSLKPEDTAVYDCAKDYVNQYGVYKVWANNYNYWGQGTQVTVSS | low polyreactivity |
| QVQLVESGGGLVQAAGSLRLSCAASGRIFRRYAMGWYRQAPGKERELVAAITNNGANTYYADSVKGRFTISRDNAKNTVYLQMNSLKPEDTAVYDCARKSYPGRPAYRYDYWGQGTQVTVSS | high polyreactivity |
| QVQLVESGGGLVQAAGSLRLSCAASGRTFYDNAMGWYRQAPGKERELVAAITKSGGRTYYVDSVKGRFTISRDNAKNTVYLQMNSLKPEDTAVYYCAASWPNYLYEYWGQGTQVTVSS | high polyreactivity |
| QVQLVESGGGLVQAAGSLRLSCAASGRTFYVYDMGWYRQAPGKERELVAVISSSGSTNYADSVKGRFTISGDNAKNSVYLQMNSLKPEDTAVYDCYRRRWYFFSLDYWGQGTQVTVSS | high polyreactivity |
| QVQLVESGGGLVQAAGSLRLSCAASGSIFGVNVMGWYRQAPGKERELVAAITTSGGSTYYADSVKGRFTISRDNAKNTVYLQMNSLKPEDTAVYYCAAEVYYPIFLTFYYRGQGTQVTVSS | high polyreactivity |
| QVQLVESGGGLVQAAGSLRLSCAASGSIFNRSTMGWSRQAPGKERELVAGISRGGTTYYADSVKGRFTISRDNAKNTVYLQMNSLKPEDTAVFYCAADYGLLYGQLWGYGYWGQGTQVTVSS | high polyreactivity |
| QVQLVESGGGLVQAAGSLRLSCAASGSTFPYYAMGWYRQAPGQERELVAAIPRSGGSTYSADSVKGRFTISRDHAKNTVYLQMNSLKPEDTAVYYCAAKLAQRYFYRYDYWGPGTQVTVSS | high polyreactivity |
| QVQLVESGGGLVQAAGSLRLSCAASGSTFYRNAMGWYRQAPGKERELVASINNGGSTYYADSVKGRFTISRDNAKNTVYLQMNSLKPEDTAVYYCAATESWDYDYWGQGTQVTVSS | low polyreactivity |
| QVQLVESGGGLVQAAGSLRLSCAPSGSIYNYTIGWYRQAPGKERELVAAISRSGTRTYYADSVKGRFTISRDNAKNTVYLQMNSLKPEDTAVYYCAARILPPGDNVDDDYWGQGTQVTVSS | high polyreactivity |
| QVQLVESGGGLVQAAGSLRLSCDASGRIFAYYAMGWYRQAPGKERELVAAISRSGVSTYYADSVKGRFTISRDNAKNTVYLQMNSLKPEDTAVYYCAARWRSGFTSGDYWGQGTQVTVSS | low polyreactivity |
| QVQLVESGGGLVQAAGSLRVSCAASGSIFYSNVMGWYRTEPGKERELVARISDAGSTNYADSVKGRFTISRDNAKNTVYLQMNSLKPEDTAVYYCNARLVIYTYDYWGQGTQVTVSS | low polyreactivity |
| QVQLVESGGGLVQAAGSLRVSCAASGSTFSWNPMGWSIQAPGKERELVAASTSGGRTYYADSVKGRFTISRDNAKNTVYLQMNSLKPADTAVYYCAAYATIYRDMGYWGHGTQVTVSS | high polyreactivity |
| QVQLVESGGGLVQAGASLRLSCAASGFIFAINTMGWNLQAPGKETELVAGINWRGSSKYYADSVKGRFTISRDNAKNTVYLQMNSLKPEDTAVYYCAARRFWGSDYDYWGLGTQVTVSS | high polyreactivity |
| QVQLVESGGGLVQAGASLRLSCAASGFTFDENAMGWYRQAPGINYSGASTYYAHSVKGRFTISRDNAKNTVYIHMNSLQPEDTAVYYCAAEVVAQMNYWGQGTQVTVSS | low polyreactivity |
| QVQLVESGGGLVQAGASLRLSCAASGFTFGTYVMGWYRQAPGKERELVARITYGGGRTYYADSVKGRFTISRDNAKNTVYLQMNSLNPEDTAVYYSNARVTYSRYFKGYNYWGQGTQVTVSS | high polyreactivity |
| QVQLVESGGGLVQAGASLRLSCAASGFTFGWYAMGWSRQARGKERELVAAISYSGGSTYYADSVKGRFTISRDNAKNTVYLQMISLKPEDTAVYYCAALYTGDSGYWGQGTQVTVSS | high polyreactivity |
| QVQLVESGGGLVQAGASLRLSCAASGGIFYVYDMGWYRQAPGKERELVAVITFTGGSTYYADSVKGRYTISRDNAKNSVYFQKNRLKPEDTAVYYCAADAYQSAYSGEYDVYTEYDYWGQGTQVTVSS | low polyreactivity |

| Sequence | polyreactivity (PSR sort gate) |
| --- | --- |
| QVQLVESGGGLVQAGASLRLSCAASGRIFGRNAMGWYRQAPGKERELVAAISSGSGSTYYADSVKGRFTISRDNAKHTVYLQLNSLIPEDTAVYYCAATVSTYLAWRGYWGQGTQVTVSS | high polyreactivity |
| QVQLVESGGGLVQAGASLRLSCAASGRIFGVYAMGWYRQAPGKDRELVAGINGGDSTYYADSVKGRFTISRDNAKNTVYLQINSLKPEDTAVYYCAAQADESGSNYDYWGQGTQVTVSS | low polyreactivity |
| QVQLVESGGGLVQAGASLRLSCAASGRIFNIYALGWYRQAPGKERELVADITSGGTTYADSVKWRFTISRDNAKNTVYLQMNSLKPEDTAVYYCAAVYRYRNRRDYDYWGQGTQVTVSS | high polyreactivity |
| QVQLVESGGGLVQAGASLRLSCAASGRIFSKNAMGWYRQAPGKERELVAAISANTGSTYYADSVKGRFTISRDNAKNTVYLQMNILKPEDTAVYYCATTWTIRRYRYTPRLVDYWGQGTQVTVSS | low polyreactivity |
| QVQLVESGGGLVQAGASLRLSCAASGRTFGYYAMGWYRQAPGKERELVATISRRGGRTYYADSVKGRFTISRDNAKNTVYLQMNSLKPEDTAVYYCNKYLASYSYSDLVYWGQGTQVTVSS | high polyreactivity |
| QVQLVESGGGLVQAGASLRLSCAASGRTFNVYAMGWYRQAPGKERELVASISSGTSTNYADSVKGRFTISRDNAKNTVYLQMNSLKPEDTAVYYCNADFVWNGYSGRIRDYYWGQGTQVTVSS | low polyreactivity |
| QVQLVESGGGLVQAGASLRLSCAASGRTFSNYEMGSYRQAPGKERELVAAISGTGGTTYYADSVKGRFTISRVNEKNTVYLQMNSLKPEDTAVYYCAARSHTGYFPPSYYSGQGTQVTVSS | high polyreactivity |
| QVQLVESGGGLVQAGASLRLSCAASGRTFWYNAMGGYRQAPGKERELVAAISSTGGRTYYADSVKGRFTISRDNAKNTVYLQMNSLKPEDTAVYYCAARQLSSHYDYWGQGTQVTVSS | low polyreactivity |
| QVQLVESGGGLVQAGASLRLSCAASGSIFKDNAMGWYRQAPGKERELVAAISWNGGSTYYADSVKGRFTISRDNAKNTVYLHMNSLKPEDTAVYYCATRIYGWSFGSWYKYDYWGQGTQVTVSS | low polyreactivity |
| QVQLVESGGGLVQAGASLRLSCAASGSIFYGNTMGWYRQAPGKERELVAAISSGGSTKYADSVKGRFTISRDNAKNTVYLQMNSLKPEDTAVYYCAADLPRYWVTWMDYWGQGTQVSVSS | low polyreactivity |
| QVQLVESGGGLVQAGASLRLSCAASGSIFYHNTMGWYRQAPGKERELITYYADSVKRRFTISRDNAKNTVYLQMNSLKPEDTAVYYCAASPVYRTGPGDYDYWGQGTQVTVSS | low polyreactivity |
| QVQLVESGGGLVQAGASLRLSCAASGSISKSYAMGWYRQAPGKERELVAAISWRGGSTYADSVKGRFTISRDNAKNTVYLQMNSLKPEDTAVYYCAATNYGTFWGGQSERYDYWGQGTQVTVSS | low polyreactivity |
| QVQLVESGGGLVQAGASLRLSCAASGSTFHSYAMGWYRQAPGKERELVAAISTSGGSTYYADSVKGRFTISRDNAKNTVYLQMNSLKPEDTAVYYCAAYSISSRMNYWGQGTQVTVSS | high polyreactivity |
| QVQLVESGGGLVQAGASLRLSCAASGSTFKYYTMGWYRQAPGKERALVAAISFSGARTYYADSVKGRFTISRDNAKNTVYLQMNSLKPEDTAVYYCAKASSYSRRYEYWGQGTQVTVSS | high polyreactivity |
| QVQLVESGGGLVQAGASLRLSCAASGSTFYYNAMGWYRQAPGKERELVAAISKSSSRTYYADSVKGRFTISRDNAKNTVFLQMNSLKPEDTAGYYCAADAVYYHFDYWGQGTQVTVSS | high polyreactivity |
| QVQLVESGGGLVQAGASLRLSCAASGYIFVRYAMGWYRQAPGKEREFVAAISSSGGSTRYADSVKVRFTISRDNAKNTVYLQMNSLKPEDTAVYYCAATRVARHGSPMYYWGQGTKVTVSS | high polyreactivity |
| QVQLVESGGGLVQAGASLSLSCAASGYIFARYAMGLYIQSPGKERELVAAIRGDGGSTYYADSVKGRFTISRDNAKNTVYLQMNSLKPVDTAVYYCSTEIPWVSYYWTYYFWGQCTQVTVSS | high polyreactivity |
| QVQLVESGGGLVQAGASLSLSSAASGYIFYRYAMGWYRQAPGKERELVAAISSNGVSTYYADSVKGRFTISRDNAKNTVYLQLISLKPEDTAVYYCARDVYASPRRYNSRYNYWGQGTQVTVSS | low polyreactivity |
| QVQLVESGGGLVQAGCSLRFSSAASGRISNYPMGWYRQPPGKERELVAAITWSGGSTYADSVKGRFTISRDNAKNTVYLQMNSLKPEDTAVYYWAARGTRYWDYRYYAYNYWGQGTQVTVSS | high polyreactivity |
| QVQLVESGGGLVQAGCSLRISCAASGRIIKSYASGWYRQAPGKERELVAAITWSSGSTYYADSVKGRFTISRDNAKNTVYFQMKRLKPEDTEVYYCAADPIRYRSRHKYGFWGHGTQVTVSS | low polyreactivity |
| QVQLVESGGGLVQAGCSLRLICAASGSIFDEYAMGWYRKAPGKERELVAAITSNGGSTYADSVKGRFTISRDNAKNTVYLQMNSLKPEDTAVYYCAADYFVYWYYGYGYWGQGTQVTVSS | low polyreactivity |
